Here are results for 19 molecules from patent US20180207276A1, “MODIFIED THERAPEUTIC AGENTS AND COMPOSITIONS THEREOF” (THE CALIFORNIA INSTITUTE FOR BIOMEDICAL RESEARCH, priority 2015, published 2018).

Positions of bridges follow the written chain, without caps; N, C: chain ends. Non-standard residues stand in square brackets, D forms with d. Primed or numbered codes have the meaning given here. Chains are numbered I, II in the order given. No end group written: not given here. *: point of attachment. FA2″ = lipid moiety from Br-FA2: acetamide, two PEG2-propionic acid units, Lys and octadecanedioic acid; X1 = O=C(O)CCCCCCCCCCCCCCCCC(=O)N[C@@H](CCCCNC(=O)CCOCCOCCNC(=O)CCOCCOCCNC(=O)C*)C(=O)O; X2 = O=C(O)CCCCCCCCCCCCCCCCC(=O)N[C@@H](CCCCn1cc(COCCOCCOCCOCCOCCNC(=O)C*)nn1)C(=O)O; X3 = CCCCCCCCCCCCCCCCCC(=O)N[C@@H](CCCCNC(=O)CCOCCOCCOCCOCCOCCNC(=O)C*)C(=O)O; X4 = CCCCCCCCCCCCCC(=O)N[C@@H](CCCCNC(=O)CCOCCOCCOCCOCCOCCNC(=O)C*)C(=O)O; FA183 = acetamide-PEG5-Lys-octadecanedioic acid; ALK = (PEG)5-bromo-alkyne, S-alkylating Cys; FA182 = acetamide-PEG5-Lys-myristic acid; FA186 = acetamide-PEG5-Lys-stearic acid; pGlu = O=C1CC[C@@H](C(=O)O)N1; FA155 = not defined here; FA2 = not defined here

One data set deals with T1, LGR7 (Homo sapiens, UniProt Q9HBX9).
T1 construct: expressed in transfected cells; host or cells: HEK293T cells stably expressing recombinant LGR7, transduced with CRE-Luc lentivirus
T1 sequence (Q9HBX9 1-757): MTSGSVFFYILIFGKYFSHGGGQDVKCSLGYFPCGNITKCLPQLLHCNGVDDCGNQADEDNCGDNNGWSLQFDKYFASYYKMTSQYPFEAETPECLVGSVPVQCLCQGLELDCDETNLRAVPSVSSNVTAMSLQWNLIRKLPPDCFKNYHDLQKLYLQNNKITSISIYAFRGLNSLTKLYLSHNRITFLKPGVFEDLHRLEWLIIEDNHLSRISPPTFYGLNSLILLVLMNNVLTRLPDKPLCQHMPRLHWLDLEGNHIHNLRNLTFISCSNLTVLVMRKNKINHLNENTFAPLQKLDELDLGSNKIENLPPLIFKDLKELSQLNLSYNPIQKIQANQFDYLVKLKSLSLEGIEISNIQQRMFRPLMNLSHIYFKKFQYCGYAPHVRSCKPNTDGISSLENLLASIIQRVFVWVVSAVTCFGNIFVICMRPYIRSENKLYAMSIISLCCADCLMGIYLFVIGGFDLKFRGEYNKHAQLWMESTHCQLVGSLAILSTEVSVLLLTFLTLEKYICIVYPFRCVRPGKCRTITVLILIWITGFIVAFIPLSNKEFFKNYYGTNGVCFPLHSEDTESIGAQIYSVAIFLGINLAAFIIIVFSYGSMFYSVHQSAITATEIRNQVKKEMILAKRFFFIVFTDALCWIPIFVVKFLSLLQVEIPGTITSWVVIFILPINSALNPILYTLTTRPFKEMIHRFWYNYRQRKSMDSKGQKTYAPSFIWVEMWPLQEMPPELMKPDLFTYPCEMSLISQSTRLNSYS
Nature of the data set: LGR7 CRE-Luc reporter gene assay (bioactivity of relaxin peptides). To be noted: HEK293T cells expressing LGR7 and CRE-Luc; for Activity, fold drop compared to relaxin: fold drop relative to relaxin; for EC50: 18 hours incubation, luciferase readout. The class given is cell-based. As to the method:
Relaxin 2 signals through leucine-rich repeat-containing GPCRs (i.e LGR7 (RFXR1)). The bioactivity of wild-type relaxin peptides was determined based on the stimulation of adenylate cyclase activity in HEK293T cells stably expressing recombinant LGR7. Stable LGR7 expressing cells were maintained in Dulbecco's modified Eagle's medium/F-12 media supplemented with 200 ng/ml Zeocin (Invitrogen). A cyclic AMP responsive element driven luciferase (CRE-Luc) reporter line was generated by lentiviral transduction of these LGR7 expressing HEK293T cells with CRE-Luc lentivirus (Qiagen) and selected with puromycine (2 μg/mL) for two weeks. A reporter gene assay was used to detect cAMP levels and LGR7 activation by relaxin.
Assay detail: HEK293T cells expressing LGR7 and CRE-Luc are seeded at a density of 5×10^3 cells per well in 50 μL of Dulbecco's modified Eagle's medium/F-12 medium containing 10% FBS in 384-well solid bottom white plates. Cells are pre-incubated at 37° C. overnight. Different concentrations of relaxin peptides (from 0.01 nM to 1000 nM) were added in triplicate, incubated for 18 hours and luciferase activity was detected by adding […], of Bright Glo (Promega). Luminescence was recorded on Envision (Perkin Elmer). EC50 is calculated after non-linear curve fitting (see FIG. 2 for relaxin H2 dose response curve).

Data set [1] is described as follows: Mouse in vivo PK study for half-life extension. More on the design: species or system CD1 female mice. The settings on record: 0.3 mg/kg in NH4Ac buffer, plasma levels by cell-based reporter gene assay; for half-life: female, CD1, sc. As to the method:
Lipid conjugated relaxin or other therapeutic agents were dosed in mice using sc, po, iv dosing. Plasma levels of TA were determined by LGR7 activation at different time points (e.g., i.v. PK 5 min, 0.5h, 1h, 2h 4h, 8h, 24h, 48h).

The nature of a further data set: in vivo. The settings on record: female, Dahl salt sensitive (DSS), rat, plasma, sc, 0.3 mg/kg.
The target in data set [2] is T2, LGR7 (relaxin 2 receptor), recombinant, stably expressed in HEK293T cells with a CRE-Luc reporter (UniProt Q9HBX9 1-757, limits assumed).
T2 sequence (looked up): T1 sequence (Q9HBX9 1-757)
As to the kind of experiment: cell-based or functional assay.

Regarding `CC[C@H](C)[C@@H]1NC(=O)[C@H](C)NC(=O)[C@H]([C@@H](C)CC)NC(=O)[C@H](CCC(N)=O)NC(=O)[C@H](C)NC(=O)[C@H](CCCNC(=N)N)NC(=O)[C@H](C(C)C)NC(=O)[C@H](CC(C)C)NC(=O)[C@H](CCC(=O)O)NC(=O)[C@H](CCCNC(=N)N)NC(=O)CNC(=O)[C@@H](NC(=O)[C@H](CC(C)C)NC(=O)[C@H](CCCCN)NC(=O)[C@@H](NC(=O)[C@@H](NC(=O)[C@H](CCC(=O)O)NC(=O)[C@H](CCC(=O)O)NC(=O)[C@H](CCSC)NC(=O)[C@H](Cc2c[nH]c3ccccc23)NC(=O)[C@H](CO)NC(=O)[C@H](C)N)C(C)C)[C@@H](C)CC)CSSC[C@@H]2NC(=O)[C@@H](NC(=O)[C@H](CCCCN)NC(=O)[C@H](CC(N)=O)NC(=O)[C@H](C)NC(=O)[C@H](CC(C)C)NC(=O)[C@H](C)NC(=O)[C@H](CO)NC(=O)[C@H](Cc3ccc(O)cc3)NC(=O)[C@H](CSCC(=O)NCCOCCOCCOCCOCCOCCOCCOCCOCCC(=O)NCCCC[C@H](NC(=O)CCCCCCCCCCCCCCCCC(=O)O)C(=O)O)NC(=O)[C@@H](N)CCC(N)=O)CSSC[C@H](NC(=O)CNC(=O)[C@H](C(C)C)NC(=O)[C@H](Cc3c[nH]cn3)NC2=O)C(=O)N[C@@H]([C@@H](C)O)C(=O)N[C@@H](CCCCN)C(=O)N[C@@H](CCCNC(=N)N)C(=O)N[C@@H](CO)C(=O)N[C@@H](CC(C)C)C(=O)N[C@@H](C)C(=O)N[C@@H](CCCNC(=N)N)C(=O)N[C@@H](Cc2ccccc2)C(=O)N[C@H](C(=O)O)CSSC[C@@H](C(=O)NCC(=O)N[C@@H](CCSC)C(=O)N[C@@H](CO)C(=O)N[C@H](C(=O)N[C@@H](Cc2c[nH]c3ccccc23)C(=O)N[C@@H](CO)C(=O)O)[C@@H](C)O)NC1=O` [compound 8], the “Activity, fold drop compared to relaxin” value at LGR7 is on record as 8. Moreover, the half-life in data set [1] is 570 min.
“I: ASWMEEVIKLCGRELVRAQIAICGMSTWS / II: QC(X2)YSALANKCCHVGCTKRSLARFC (disulfide I:11-II:11, I:23-II:24, II:10-II:15) [compound 3]”: at LGR7, a half-maximal effect (EC50) was put at 0.21 nM and the “Activity, fold drop compared to relaxin” value is given as 12. The same molecule had a half-life in data set [1] of 360 min.
As to “I: ASWMEEVIKLCGRELVRAQIAICGMSTWS / II: QC(X3)YSALANKCCHVGCTKRSLARFC (disulfide I:11-II:11, I:23-II:24, II:10-II:15) [compound 9]”, the “Activity, fold drop compared to relaxin” value on LGR7 is on record as 10. The half-life in data set [1] was 204 min.
For “I: ASWMEEVIKLCGRELVRAQIAICGMSTWS / II: QC(X4)YSALANKCCHVGCTKRSLARFC (disulfide I:11-II:11, I:23-II:24, II:10-II:15) [compound 7]”, on LGR7, the “Activity, fold drop compared to relaxin” value is listed as 2. Also, the half-life in data set [1] is 480 min.
For “I: ASWMEEVIKLCGRELVRAQIAICGMSTWS / II: QLYSALANKCCHC(X1)GCTKRSLARFC (disulfide I:11-II:11, I:23-II:24, II:10-II:15) [compound 2]”, in that order: 15 and 480 min.
Take “I: H-ASWMEEVIKLCGRELVRAQIAICGMSTWS / II: H-QC(X1)YSALANKCCHVGCTKRSLARFC (disulfide I:11-II:11, I:23-II:24, II:10-II:15) [compound 1]”: on LGR7, the EC50 turned out to be 0.21 nM and the “Activity, fold drop compared to relaxin” value is recorded as 12. Moreover, the half-life in data set [1] is 480 min.
“I: H-ASWMEEVIKLCGRELVRAQIAICGMSTWS / II: [pGlu]C(X1)YSALANKCCHVGCTKRSLARFC (disulfide I:11-II:11, I:23-II:24, II:10-II:15) [compound 5]”: the “Activity, fold drop compared to relaxin” value on LGR7 is 12. In the data set “in vivo”, the half-life was 960 min.
On to “Relaxin-B:D1A (chain 1 ASWMEEVIKLCGRELVRAQIAICGMSTWS; chain 2 QLYSALANKCCHVGCTKRSLARFC) [unconjugated relaxin analog with D1A substitution in the B chain]”, for which the “Half-life (mouse, sc)” value in data set [1] came to 48 min.
For the molecule Relaxin-wt [reference compound], the “Half-life (mouse, sc)” value in data set [1] was found to be 42 min.

B1: Relaxin-B:D1A-A:pQ1-L2C-FA2 (ligand)
chain 1: ASWMEEVIKLCGRELVRAQIAICGMSTWS
chain 2: XCYSALANKCCHVGCTKRSLARFC
modifications: pyroglutamate (pQ) at position 1; Cys 2 S-alkylated with FA2 (from Br-FA2, Example 6)
As for B1, in data set [2], the “Activity, fold drop compared to relaxin” value amounted to 12 fold and the “LGR7 EC50 (pM), CRE-Luc reporter in HEK293T cells expressing LGR7” value (shortened to “LGR7 EC50 (pM), CRE-Luc reporter”) was found to be 350 pM.

B2: Relaxin-B:D1A (ligand)
chain 1: ASWMEEVIKLCGRELVRAQIAICGMSTWS
chain 2: QLYSALANKCCHVGCTKRSLARFC
modifications: ends and bridges not checked; cysteine pairing not given here
On to B2, for which, in data set [2], the “Activity, fold drop compared to relaxin” value was 1 fold and the “LGR7 EC50 (pM), CRE-Luc reporter” value amounted to 45 pM.

B3: Relaxin-B:D1A-A:Q1-L2C-FA186 (ligand)
chain 1: ASWMEEVIKLCGRELVRAQIAICGMSTWS
chain 2: QC(FA186)YSALANKCCHVGCTKRSLARFC
modifications: ends and bridges not checked
On to B3, for which, in data set [2], the “Activity, fold drop compared to relaxin” value came out at 10 fold and the “LGR7 EC50 (pM), CRE-Luc reporter” value amounted to 235 pM.

B4: Relaxin-wt (ligand)
chain 1: DSWMEEVIKLCGRELVRAQIAICGMSTWS
chain 2: QLYSALANKCCHVGCTKRSLARFC
modifications: ends and bridges not checked; cysteine pairing not given here
As for B4, in data set [2], the “Activity, fold drop compared to relaxin” value was determined as 1 fold and the “LGR7 EC50 (pM), CRE-Luc reporter” value is about 40 pM.

B5: Relaxin-B:D1A-A:Q1-L2C-FA183 (ligand)
chain 1: ASWMEEVIKLCGRELVRAQIAICGMSTWS
chain 2: QC(FA183)YSALANKCCHVGCTKRSLARFC
modifications: ends and bridges not checked
As to B5, in data set [2], the “Activity, fold drop compared to relaxin” value was found to be 8 fold and the “LGR7 EC50 (pM), CRE-Luc reporter” value was found to be 174 pM.

B6: Relaxin-B:D1A-A:Q1-L2C-ALK (ligand)
chain 1: ASWMEEVIKLCGRELVRAQIAICGMSTWS
chain 2: QC(ALK)YSALANKCCHVGCTKRSLARFC
modifications: ends and bridges not checked
Regarding B6, in data set [2], the “Activity, fold drop compared to relaxin” value was 1 fold and the “LGR7 EC50 (pM), CRE-Luc reporter” value fell in the range of 17 to 50 pM.

B7: Relaxin-B:D1A-A:Q1-L2C-FA155 (ligand)
chain 1: ASWMEEVIKLCGRELVRAQIAICGMSTWS
chain 2: QC(FA155)YSALANKCCHVGCTKRSLARFC
modifications: ends and bridges not checked
As for B7, in data set [2], the “Activity, fold drop compared to relaxin” value is 12 fold and the “LGR7 EC50 (pM), CRE-Luc reporter” value came out at 210 pM.

B8: Relaxin-B:D1A-A:Q1-L2C-FA182 (ligand)
chain 1: ASWMEEVIKLCGRELVRAQIAICGMSTWS
chain 2: QC(FA182)YSALANKCCHVGCTKRSLARFC
modifications: ends and bridges not checked
For B8, in data set [2], the “Activity, fold drop compared to relaxin” value was 2 fold and the “LGR7 EC50 (pM), CRE-Luc reporter” value was determined as 51 pM.

B9: Relaxin-B:D1A-A:Q1:V13C-FA2 (ligand)
chain 1: ASWMEEVIKLCGRELVRAQIAICGMSTWS
chain 2: QLYSALANKCCHC(FA2)GCTKRSLARFC
modifications: ends and bridges not checked
On to B9, for which, in data set [2], the “Activity, fold drop compared to relaxin” value was 15 fold and the “LGR7 EC50 (pM), CRE-Luc reporter” value was 250 pM.

B10: Relaxin-B:D1A-A:Q1-L2C-FA2 (ligand)
chain 1: ASWMEEVIKLCGRELVRAQIAICGMSTWS
chain 2: QC(FA2″)YSALANKCCHVGCTKRSLARFC
modifications: ends and bridges not checked
As for B10, in data set [2], the “Activity, fold drop compared to relaxin” value came out at 12 fold and the “LGR7 EC50 (pM), CRE-Luc reporter” value stood at 210 pM.
